The source of these data is patent publication US8129349B2, “Treatment of disease by inducing cell apoptosis” (The Regents of the University of California, priority 2000, dated 2012).

The test system of the assay is hepatic stellate cells. Put plainly: Apoptosis of activated stellate cells transfected with C/EBPβ constructs, annexin-V-PE binding. Type of assay: cell-based, mouse. Conditions: apoptosis induced by dominant negative MEKK1, IκBα or RSK mutants or by lactacystin. From the text: FIG. 1 provides data showing that phosphorylation of C/EBPβ on Thr^217 is required for hepatic stellate cell survival. Panel A provides phosphopeptide maps of in vivo labeled endogenous C/EBPβ in day-4 quiescent and activated primary mouse stellate cells cultured from the time of isolation on EHS or collagen type I matrix, respectively. The arrow indicates the peptide containing Phospho-Thr^217 in activated cells. […] Panel B provides phosphopeptide maps of in vitro labeled C/EPBβ. Active p90RSK phosphorylated C/EPBβ, but not C/EBPβ-Ala^217 on Thr^217 in vitro (arrowheads). Panel C provides results for cells cultured on collagen type I transfected with MSV-C/EBPβ antisense (AS), MSV-C/EBPβ sense (S), or MSV-C/EBPβ-Ala^217 together with CMV-GFP (green fluorescent protein) and p90RSK (1 μg each), as indicated in the Figure. Four hours after transfection, annexin-V-PE binding to plasma membranes was determined. The values presented are the percentage of transfected cells (green) that were annexin-V-PE (+) (red) (P<0.05 for C/EBPβ AS, and C/EBPβ-Ala^217). Panel D provides results for cells transfected as in […] with vectors expressing dominant negative mutants for MEKK1, IκBα, or p90RSK, or treated with the proteasome inhibitor lactacystin (10 μM) (closed bars), and co-transfected with MSV-C/EBPβ-Glu^217 (1 μg each) (open bars) as indicated. Annexin-V-PE binding was determined as described for Panel A (P<0.05 for C/EBPβ-Glu^217). Panel E provides results for cells transfected as described for Panel C, with a dominant-negative p90RSK, treated with FAS (100 nM for 6 hours) or cultured in a serum-free medium for 6 hours (closed bars), and co-transfected with MSV-C/EBPβ-Glu^217 (1 μg each) (open bars), as indicated. Cell death was determined by nuclear staining with Hoechst 33342 (P<0.05 for C/EBPβ-Glu^217 in RSK mut and FAS-treated cells).
FIG. 4 provides results showing that C/EBPβ PThr^217 associates with procaspases 1 and 8, and inhibits their activation. Panel A provides schematic representations of C/EBPβ peptides. The activation (dotted bars), DNA binding (solid bars) and dimerization (hatched bars) domains are shown. […] Panel C provides results showing that C/EBPβ and procaspase 8 were detected in activated stellate cells isolated from C/EBPβ^+/+ mice by confocal microscopy using specific antibodies (Santa Cruz Biotechnology). Control C/EBPβ^−/− stellate cells were negative for C/EBPβ, positive for procaspase 8, and apoptotic. Panel D provides immunoblot results for MSV vectors expressing C/EBPβ-HA (hemagglutinin protein) peptides (0.3 μg) transfected into activated stellate cells. The expressed peptides were immunoprecipitated with anti-HA antibodies. C/EBPβ-PThr^217 was detected using a specific antibody, only in cells expressing wild-type C/EBPβ. […] RSK was associated with all C/EBPβ peptides. Neither C/EBPβ nor procaspases 1 and 8 were detected in C/EBPβ immunoprecipitates from cells expressing C/EBPβ AS. Reciprocal immunoprecipitations of procaspases and RSK confirmed these associations.
Adult male Sprague-Dawley rats and adult male C/EBPβ^+/+ and C/EBPβ^−/− (Screpanti et al., supra; and Buck et al., (1999), supra), C/EBPβ-Ala^217 and C/EBPβ-Asp^105 transgenic mice were used for the isolation of primary hepatic stellate cells (Houglum et al., supra). Primary hepatic stellate cells were isolated by collagenase/pronase perfusion and purified by a single step density Nycodenz gradient (Accurate Chemical & Scientific) as known in the art (See, Lee et al., (1995), supra). Cells were plated on type I collagen matrix (Becton Dickinson) or EHS matrix (Matrigel, Collaborative Biomedical Products). Cells were cultured with 10% fetal calf serum/10% fetal bovine serum and transfected with lipofectamine (GIBCO) for DNA vectors or with the Chariot reagent (Active Motif) for peptides (10 μM) as known in the art (See, Houglum et al., supra; and Morris et al., J. Biol. Chem., 274:24942-24946 (1999)). […]

B1: C/EBPβ-Glu^217: modified murine C/EBPβ with mutation of Thr^217 to glutamic acid (SEQ ID NO:4), phosphorylation mimic (protein, listed as Mus musculus)
chain: MHRLLAWDAACLPPPPAAFRPMEVANFYYEPDCLAYGAKAARAAPRAPAAEPAIGEHERAIDFSPYLEPLAPAADFAAPAPAHHDFLSDLFADDYGAKPSKKPADYGYVSLGRAGAKAAPPACFPPPPPAALKAEPGFEPADCKRADDAPAMAAGFPFALRAYLGYQATPSGSSGSLSTSSSSSPPGTPSPADAKAAPAACFAGPPAAPAKAKAKKZVDKLSDEYKMRRERNNIAVRKSRDKAKMRNLETQHKVLELTAENERLQKKVEQLSRELSTLRNLFKQLPEPLLASAGHC
For B1, the “Rescue from induced apoptosis by expressed construct” value was “partially inhibited”.
